To fix the notation:
B2: BMP10 (ligand)
chain: NAKGNYCKRTPLYIDFKEIGWDSWIIAPPGYEAYECRGVCNYPLAEHLTPTKHAIIQALVHLKNSQKASKACCVPTKLEPISILYLDKGVVTYKFKYEGMAVSECGCR
B3: GDF11 (ligand)
chain: NLGLDCDEHSSESRCCRYPLTVDFEAFGWDWIIAPKRYKANYCSGQCEYMFMQKYPHTHLVQQANPRGSAGPCCTPTKMSPINMLYFNDKQQIIYGKIPGMVVDRCGCS
B4: BMP9 (ligand)
chain: SAGAGSHCQKTSLRVNFEDIGWDSWIIAPKEYEAYECKGGCFFPLADDVTPTKHAIVQTLVHLKFPTKVGKACCVPTKLSPISVLYKDDMGVPTLKYHYEGMSVAECGCR

The target of one test is K55A / F82I. Kind of test: SPR; 37C. A general note: Surface plasmon resonance follows binding to a sensor surface in real time, without labels.
The next test has as its target K74A. Kind of test: SPR; 37C.
For the next test, the target named is L79K / F82K. Kind of test: SPR; 37C.
The next test has as its target N35Q. Put plainly: SPR; 25C.
For another test, the target named is Q98I. Kind of test: SPR; 25C.
In another test the target is Q98A. Kind of test: SPR; 25C.
Another test has as its target L38Q. Put plainly: SPR; 25C.
A further test deals with N35F. Put plainly: SPR; 25C.
A further test deals with Q98L. Put plainly: SPR; 25C.
Another test deals with L38D. Kind of test: SPR; 25C.
Another test deals with L38R. Kind of test: SPR; 25C.
A further test has as its target Q98V. Put plainly: SPR; 25C.
Another test concerns the target Q98K. Kind of test: SPR; 25C.
In another test the target is Q98R. Kind of test: SPR; 25C.
The test “BMP9” concerns the target B4. Kind of test: SPR; 37 C.
The target in the test “BMP10” is B2. Put plainly: SPR; 37 C.
The target in another test is T1, BMP6 (UniProt P22004 382-513).
T1 chain: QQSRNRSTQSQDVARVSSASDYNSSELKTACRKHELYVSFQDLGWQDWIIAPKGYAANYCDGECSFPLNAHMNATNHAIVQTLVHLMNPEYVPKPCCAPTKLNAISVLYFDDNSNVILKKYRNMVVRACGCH
Kind of test: SPR; 37 C.

The target in the test “GDF11” is B3. Put plainly: SPR; 37C.
Another test concerns the target T2, activin A (UniProt P08476 311-426).
T2 chain: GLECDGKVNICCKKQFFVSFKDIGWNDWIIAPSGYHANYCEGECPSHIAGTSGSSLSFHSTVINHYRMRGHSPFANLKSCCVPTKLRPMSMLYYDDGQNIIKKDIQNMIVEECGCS
Put plainly: SPR; 37C.

The next test addresses T3, activin B (UniProt P09529 293-407).
T3 chain: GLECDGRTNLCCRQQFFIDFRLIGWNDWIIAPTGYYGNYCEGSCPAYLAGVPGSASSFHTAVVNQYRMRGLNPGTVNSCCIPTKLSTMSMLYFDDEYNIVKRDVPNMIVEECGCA
Put plainly: SPR; 37C.

In the next test the target is GDF8 (UniProt O14793 267-375). Kind of test: SPR; 37C.

For orientation: Kd means the concentration at which binding is half-saturated.

Sequence of GDF8 (O14793 267-375): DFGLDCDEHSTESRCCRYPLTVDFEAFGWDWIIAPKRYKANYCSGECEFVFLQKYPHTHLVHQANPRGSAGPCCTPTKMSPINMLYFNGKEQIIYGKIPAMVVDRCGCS

B1: Activin A (ligand)
chain: GLECDGKVNICCKKQFFVSFKDIGWNDWIIAPSGYHANYCEGECPSHIAGTSGSSLSFHSTVINHYRMRGHSPFANLKSCCVPTKLRPMSMLYYDDGQNIIKKDIQNMIVEECGCS
On to B1, for which the Kd turned out to be 0.047 nM with K55A / F82I; 0.034 nM in the test with K74A; 0.64 nM in the test with L79K / F82K; 0.32 nM in the test with N35Q; 0.157 nM in the test with Q98I; 0.155 nM with Q98A. Besides, the Kd was found to be 0.2 nM in the test with L38Q; 0.29 nM in the test with N35F; 0.22 nM in the test with Q98L; 0.23 nM with L38D; 0.23 nM with L38R; 0.16 nM with Q98V. Besides, the Kd worked out at 0.145 nM with Q98K and 0.3 nM with Q98R.

Regarding B2, the Kd is 0.007 nM with K55A / F82I; 0.033 nM with K74A; 0.068 nM with L79K / F82K; 0.27 nM with N35Q; 0.21 nM with Q98I; 0.21 nM with Q98A. In addition, the Kd with L38Q was found to be 0.089 nM; with N35F, 0.22 nM; with Q98L it was 0.065 nM; in the test with L38D, 0.15 nM; with L38R it was 0.11 nM; with Q98V, 0.048 nM. Moreover, the dissociation constant Kd in the test with Q98K was found to be 0.068 nM; in the test with Q98R, 0.32 nM.

As for B3, the Kd was 0.09 nM in the test with K55A / F82I; 0.43 nM with K74A; 1.6 nM with L79K / F82K; 0.02 nM with N35Q; 0.049 nM in the test with Q98I; 0.037 nM with Q98A. In addition, the dissociation constant Kd was found to be 0.021 nM in the test with L38Q; 0.017 nM with N35F; 0.043 nM with Q98L; 0.03 nM with L38D; 0.007 nM with L38R; 0.033 nM in the test with Q98V. Also, the Kd in the test with Q98K was 0.037 nM; with Q98R it was 0.02 nM.

Turning to B4, the Kd with K55A / F82I is 0.134 nM; with K74A, 0.36 nM; with Q98I it was 0.059 nM; in the test with Q98A it was 0.043 nM; with L38Q it was 0.033 nM; with Q98L, 0.071 nM. Also, the dissociation constant (Kd) with L38D came out at 0.063 nM; in the test with L38R, 0.05 nM; in the test with Q98V it was 0.047 nM; with Q98K, 0.069 nM; with Q98R, 0.074 nM.

B5: ActRIIB-G1Fc (SEQ ID NO: 519) (Fc fusion)
chain: GRGEAETRECIYYNANWELERTNQSGLERCEGEQDKRLHCYASWRNSSGTIELVKKGCWLDDFNCYDRQECVATEENPQVYFCCCEGNFCNERFTHLPEAGGPEVTYEPPPTAPTGGGTHTCPPCPAPELLGGPSVFLFPPKPKDTLMISRTPEVTCVVVDVSHEDPEVKFNWYVDGVEVHNAKTKPREEQYNSTYRVVSVLTVLHQDWLNGKEYKCKVSNKALPVPIEKTISKAKGQPREPQVYTLPPSREEMTKNQVSLTCLVKGFYPSDIAVEWESNGQPENNYKTTPPVLDSDGSFFLYSKLTVDKSRWQQGNVFSCSVMHEALHNHYTQKSLSLSPGK
Take B5: the Kd with BMP9 was determined as 0.0831 nM; with BMP10 it was 0.00841 nM; with BMP6, 0.431 nM; in the test with GDF11, 0.00491 nM; in the test with activin A it was 0.0135 nM; with activin B, 0.0225 nM. In the test with GDF8, this molecule came in with a Kd of 0.0795 nM.

The values above are taken from US20230183319A1 (published 2023).
